Source: the Immune Epitope Database (IEDB)

Key:
HLA-A*01:01 [1] = experiment: IEDB peptide-MHC binding, purified MHC/competitive/radioactivity; filed as Kd, often an IC50 or EC50 that approximates it; ≥ and ≤ were set here for values at or beyond the usual limits of such assays
HLA-A*23:01 = experiment: as above
HLA-A*24:02 = experiment: as above
HLA-A*26:01 [2] = experiment: as above
HLA-A*29:02 = experiment: as above
HLA-A*30:02 = experiment: as above
HLA-B*40:01 [3] = experiment: as above
HLA-A*01:01 [4] = experiment: IEDB peptide-MHC binding, purified MHC/direct/fluorescence; filed as Kd, often an IC50 or EC50 that approximates it; ≥ and ≤ were set here for values at or beyond the usual limits of such assays; details: source organism: Escherichia coli
HLA-A*02:01 = experiment: as above; details: source organism: Salmonella enterica
HLA-A*03:01 = experiment: as above; details: source organism: Salmonella enterica
HLA-A*11:01 = experiment: as above; details: source organism: Salmonella enterica
HLA-A*24:03 = experiment: as above; details: source organism: Salmonella enterica
HLA-A*26:01 [5] = experiment: as above; details: source organism: Salmonella enterica
HLA-A*31:01 = experiment: as above; details: source organism: Salmonella enterica
HLA-A*69:01 = experiment: as above; details: source organism: Salmonella enterica
HLA-B*07:02 = experiment: as above; details: source organism: Salmonella enterica
HLA-B*08:01 = experiment: as above; details: source organism: Salmonella enterica
HLA-B*15:01 = experiment: as above; details: source organism: Salmonella enterica
HLA-B*27:05 = experiment: as above; details: source organism: Salmonella enterica
HLA-B*40:01 [6] = experiment: as above; details: source organism: Salmonella enterica
HLA-B*44:02 = experiment: as above; details: source organism: Salmonella enterica
HLA-B*58:01 = experiment: as above; details: source organism: Salmonella enterica
[7] = source organism: Mammarenavirus juninense
[8] = source organism: Dengue virus 2 Jamaica/1409/1983
[9] = source organism: SARS coronavirus Tor2

## SMRSVQRNTV
HLA-A*01:01 [1]; [7]
  Kd: 2.99 µM
HLA-A*23:01; [7]
  Kd: ≥ 70 µM
HLA-A*24:02; [7]
  Kd: ≥ 70.3 µM
HLA-A*26:01 [2]; [7]
  Kd: ≥ 69.7 µM
HLA-A*29:02; [7]
  Kd: ≥ 71.4 µM
HLA-A*30:02; [7]
  Kd: 7.86 µM

## TEHGTTATI
HLA-B*40:01 [3]; source organism: Dengue virus 1 Nauru/West Pac/1974
  Kd: 0.0571 µM

## TEIQMSSGNL
HLA-B*40:01 [3]; [8]
  Kd: 0.00703 µM

## TEWCCRSCTL
HLA-B*40:01 [3]; [8]
  Kd: 0.00995 µM

## TSTGNYNYKY
HLA-A*01:01 [1]; [9]
  Kd: 0.0965 µM
HLA-A*23:01; [9]
  Kd: ≥ 70 µM
HLA-A*24:02; [9]
  Kd: ≥ 70.3 µM
HLA-A*26:01 [2]; [9]
  Kd: 1.26 µM
HLA-A*29:02; [9]
  Kd: 0.294 µM
HLA-A*30:02; [9]
  Kd: 0.0423 µM

## VEEQDANFV
HLA-B*40:01 [3]; source organism: Dengue virus 1 Brazil/97-11/1997
  Kd: 0.412 µM

## VFNNYMPYVF
HLA-A*01:01 [1]; [9]
  Kd: ≥ 20.6 µM
HLA-A*23:01; [9]
  Kd: 0.00832 µM
HLA-A*24:02; [9]
  Kd: 0.0112 µM
HLA-A*26:01 [2]; [9]
  Kd: ≥ 21.6 µM
HLA-A*29:02; [9]
  Kd: 0.00922 µM
HLA-A*30:02; [9]
  Kd: 7.11 µM

## WEGGHDLTV
HLA-B*40:01 [3]; source organism: Dengue virus 4 Philippines/H241/1956
  Kd: 1.85 µM

## WTDLYTSMS
HLA-A*01:01 [4]
  Kd: 0.0817 µM
HLA-A*02:01
  Kd: ≥ 20 µM
HLA-A*03:01
  Kd: ≥ 20 µM
HLA-A*11:01
  Kd: ≥ 20 µM
HLA-A*24:03
  Kd: ≥ 20 µM
HLA-A*26:01 [5]
  Kd: ≥ 20 µM
HLA-A*31:01
  Kd: ≥ 20 µM
HLA-A*69:01
  Kd: ≥ 20 µM
HLA-B*07:02
  Kd: ≥ 20 µM
HLA-B*08:01
  Kd: ≥ 20 µM
HLA-B*15:01
  Kd: ≥ 20 µM
HLA-B*27:05
  Kd: ≥ 20 µM
HLA-B*40:01 [6]
  Kd: ≥ 20 µM
HLA-B*44:02
  Kd: ≥ 20 µM
HLA-B*58:01
  Kd: ≥ 20 µM

## YYCKSHKPPI
HLA-A*01:01 [1]; [9]
  Kd: ≥ 48.3 µM
HLA-A*23:01; [9]
  Kd: 0.207 µM
HLA-A*24:02; [9]
  Kd: 0.193 µM
HLA-A*26:01 [2]; [9]
  Kd: ≥ 69.7 µM
HLA-A*29:02; [9]
  Kd: 1.62 µM
HLA-A*30:02; [9]
  Kd: 11.5 µM

## YYPSARIVY
HLA-A*01:01 [1]; [9]
  Kd: ≥ 45.5 µM
HLA-A*23:01; [9]
  Kd: ≥ 84.5 µM
HLA-A*24:02; [9]
  Kd: ≥ 105 µM
HLA-A*26:01 [2]; [9]
  Kd: 1.37 µM
HLA-A*29:02; [9]
  Kd: ≥ 88.2 µM
HLA-A*30:02; [9]
  Kd: ≥ 78.9 µM
